# Experiment: yeast display, Sf9 membrane polyspecificity reagent, FACS + sequencing; frameworks hold sequencing errors
# Summary of the method: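 In a synthetic yeast display library (Saccharomyces cerevisiae BJ5465), nanobody expression was induced with galactose for 36–48 hours. FACS gates were set low and high (top ~1%) using anti-HA fluorescence for expression and streptavidin fluorescence for binding of the Sf9 membrane reagent. Each polyreactivity label is drawn from the gate of origin.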
row,Sequence,polyreactivity (PSR sort gate)
1,QVQLVESGGGVVQAGGSLRLSCAATGRIFGVYAMGWYRQAPGKERELVAAISSTGGSTYYADSVKGRFTISRDNAKNTVYLQMNSLKPEDTAVYYCEYDYWGQGSQVTVSS,low polyreactivity
2,QVQLVESGGGVVQAGGSLRLSCAGSGFTFPSYAMGWYRQAPGKERELVAAISVGGGSTYYADSVKGRFTISRDKAKNTVYLQMNSLKPEDTAVYYCNADYWYWVWLVGGNVDLDYWGQGTQVTVSS,high polyreactivity
3,QVQLVESGGGVVQAGGSLRLSCAGSGRTFPYYAVGWYRQAPGKERELVAVISSADSTNYADSVKGRFTISRDNAKNTVYLQMNSLKPEDTAVYYCADDAVYYGDDYWGQGTQVTVSS,low polyreactivity
4,QVQLVESGGGVVQAGGSLRLSSAASGRIIRYYTMGWYRQAPGKERELVAAIRTYGGRTYYADSVKGRFTISRDNAKNSVYLQMNSLKPEDTAVYYCAADGGRPRYDSWGQGTQVTVSS,high polyreactivity
5,QVQLVESGGGVVQAGGSLRLTCAASGRTCPIYAMGWYRQAPGKERELVATITWNDGNTYYADSVKGRFTISRDNAKNTVYLQMNCLKPEDTAVYYCAAKGGWPWHYHYQKNSEYDYWGQGTQVTVSS,low polyreactivity
6,QVQLVESGGGVVQAGGSLRLTCAASVSIFASNAMGWYRQAPGKEREFVAAITWRTDRTYYADSVKGRFTISRDNAKNTVYLQMNSLKPEDTAVYYCAADLLPLYDYWGQGTQVTVSS,high polyreactivity
7,QVQLVESGGGVVQAGGTLRLSCAASGINFIDNTMGWYRQAPGKEREFVATISANSDGTYYADSVKRRFTISRDNAKKTVYLQMNSLKPEETAVYYWGQGTQVTVSS,low polyreactivity
8,QVQLVESGGGVVQAGRSLRLSCAASGSTFQPYAMGSYRQAPGKEREFVATISGSAGSTYYADSVKGSFKISRDNAKNTVYLQMTSLKPEDTAVYYCNADSGWFGYDYWGQGTQVTVSS,low polyreactivity
9,QVQLVESGGGYVQAGGSLRLSCAASGSTFRYYAMGWYRQAPGKEREFVASITQSGGSTYYADSVMGRFTISRDNAKNTVYLQMISLKPEDTAVYYCAADVYSWVYLMDYWGQGTQVTVSS,low polyreactivity
10,QVQLVESGGLLVQAGGSIRLRCDASGIILRGYSLGWYRQAPGKERELVASISRGGSTNYADSVKGRFTISRDNAKTTVYLQMNSLKPEDTAVYSCNARGCNGRSDYDYWGLGTQVTVSS,high polyreactivity
11,QVQLVESGGLLVQAGGSLRLSCAASGRIFTHNATGWYRQAPGKERELVAAISYSGVSTYYADSVKGRFTISRDNAKNTVYLQMNSLKPEDTAVYYCARRYWYPDAFYRYDYWGQGTQVTVSS,low polyreactivity
12,QVQLVESGGLLVQGGGILRLSCAASGRILQGYAMGWSRQAPGKERELVDAISSGGRTYYADSVKGRFTISRDNAKNNYYLQMNSLNPDDTAVYYCAAGECWRIHAYSDDFWVQGTQVTVSS,high polyreactivity
13,QVQLVESGGRLDQAGGSLRLSCAASASTFKEYPMGWYRQAPGKERELVAAISKSGDSTYYADSVKGRFTISRDNAKNTVYLQMNSLKPEDTAVYYCAADTFSFRWSDYWGLGTQVTVSS,low polyreactivity
14,QVQLVESGGRLFQAGGSLRLSCAASGRTWGYEMGWYRQATGKERELVAAIRNGASTYYADSVKGRFTISRDNAKKTVYFHMNSRKPEDTAVYYCDADYTVRVVATYDYWGQGTQVTVSS,low polyreactivity
15,QVQLVESGGRLGQAGGSLRISCAASGGTFWYYDMGWYRQAPGKERELVAAISSGGNTYYADSVKGRFTISRDNAKITVYLQMNSLKPEDTAVYYCAALPKYGSYYYYPPFDYDYWGQGTQVTVSS,low polyreactivity
16,QVQLVESGGRLLQAGGSLRLSCAASGRTFRRYAMGWYRPAPGKERELLAAISASGGSTYYADSVKGRFTISRDNAKNTVYLQMNSLKPEDTAVYYCAADWYSYLHGTKYGYWGQGTQVTVSS,high polyreactivity
17,QVQLVESGGRLVQAGGILRLSCAASGRIFAYYAMGWYRHSPGKERELVAAINWSGDGTNYADSVKGRFTISRDNEKNSVYLQMNSLKPEDTAVYYWNADWTSYGFGTRLDYWGQGTQVTVSS,low polyreactivity
18,QVQLVESGGRLVQAGGRLRLSCAASGRIFRYYTLGWYRQAPGKERELVAAITRRGGITNYADSVKGRFTISRDNAKNTVYLQMNSLKPEDTAVYYCAAKYVSQGYDYWGQGTQVTVSS,high polyreactivity
19,QVQLVESGGRLVQAGGSHRLRCAASGFIFKHNAMGWYRQAPGQEREFVARISWSGGSTRYADSVKGRFTISRDNAKNTVYLQMNSLKPEDTAVYYCAADQLGNDMDYWGQGTQVTVSS,low polyreactivity
20,QVQLVESGGRLVQAGGSLRISCAASGSTFNGNVIVWSRQAPGKERELVAGISKSGGTTYYADSVKGRFTISRDNAKNTVYLQMNSLKPEDTAVYYCAARGRVRYYPQYDYWGQGTQVTVSS,high polyreactivity
21,QVQLVESGGRLVQAGGSLRLICAASGGIFGFNAMGWYRQAPGKERELVADISDGVRTNYADSVKWRFTISRDNAKNTVFLQMNSLKPEDTAVNYCATDGVYYVDGSWTLGYWGLGTQVTVSS,low polyreactivity
22,QVQLVESGGRLVQAGGSLRLICAASGITYYEYAMGWYRQAPGKERELVAAITSGGTTNYADSVNGRFTISLDNAKNTVYLQMNSLKPEDTAVYFCAADLIGYSYPDEYYGKGEYDYWGQGTQVTVSS,low polyreactivity

row,Sequence,polyreactivity (PSR sort gate)
1,QVQLVESGGRLVQAGGSLRLICAASGRIFKQYAMGWYRQSPGKERELVARITGSGSRTYYADSVKGRFTISRDNAKITVYIQMKSLKPEDTAVYYCAKDRYYGKRGGAWYDYWGQGTQVTVSS,low polyreactivity
2,QVQLVESGGRLVQAGGSLRLRCAASGSTIPYNAMGWYRQAPGKERELLAAITSGGSTNYADSVKGRFTISRDNAMNTVYLQMNSLKPEDTAVYYCNADSSGWFPFDYWGQGTQVTVSS,low polyreactivity
3,QVQLVESGGRLVQAGGSLRLSCAASGFIFDSYAMGWYRQAPGKERELVAAISWSGGRTYYADSVKGRFTISRDNAKNTVYLQMNSLKPEDTAVYYCNVRTKLSTSYDYWGQGTQVTVSS,high polyreactivity
4,QVQLVESGGRLVQAGGSLRLSCAASGFIFEWNAKGWYRQAPGKERELVASITFGGGNTYYADSVKGRFTISRDYAQNTDYLQMNSLKPEDTAVYYCAVDYGYWRDSIALGEFDYWGQGTQVTVSS,low polyreactivity
5,QVQLVESGGRLVQAGGSLRLSCAASGFTFPTYAMGWYRQAPGKERELVAAITRGGSTYYADSVKGRFTISRDNAKNTVYLQMNSLKPEDTAVYYCAADDPWYEEDYWGQGTQVTVSS,low polyreactivity
6,QVQLVESGGRLVQAGGSLRLSCAASGIIFSGYAMGRYRPAPGTVREFVAAIDSVTSTYYADSVKGRFTTSRDNANNTVYLQMISLKPEVTAVYYCNARSDCTWYTLDYWGQGTQVTVSS,high polyreactivity
7,QVQLVESGGRLVQAGGSLRLSCAASGIIFVSYMGWYIQAPGQERELVAAIRWSGGRTYYADSVKGRFTISRDNAKNTVYLQMTSLKPEDTAVYNCATAPYICAYSLPHHDSWGQGTQVTVSS,high polyreactivity
8,QVQLVESGGRLVQAGGSLRLSCAASGIIFYVYAMGWYRQAPGKERELVAAISSSGGSTYYADSVKGRFTISRDNAKNTVYLQMNSLKPEDSAVYYCAAVSSGYDDWGQGTQVTVTS,high polyreactivity
9,QVQLVESGGRLVQAGGSLRLSCAASGIIIRKYARGWYRPAPGKVRELVAAITTRGSRTYSADSVKGRFTISRDNAKNTVYLQMNSLKPEDTAVYYCAADRYTVRMDYWGQGTQVTVSS,high polyreactivity
10,QVQLVESGGRLVQAGGSLRLSCAASGITFYYYAMGWYRQAPGKERELVAAISSGGTRTYYADSVKGRFTISRDNAKNTVYLQMNSLKPEDTAVYYCAAPTYWHPTYDYWGQGTQVTVSS,high polyreactivity
11,QVQLVESGGRLVQAGGSLRLSCAASGRIFANYAMGWYRQAPGKERELVAAISRSGGSTSYADSVKGRFTISRDNAKNTVYLQMNSLKTEDTAVYYCAATRSRYQPVKYGYWGQGTQVTVTS,high polyreactivity
12,QVQLVESGGRLVQAGGSLRLSCAASGRIFAYYAMGWYRQAPGKERELVAAISRSGVSTYYADSVKGRFTISRDNAKNTVYLQMNSLKPEDTAVYYCAARWRSGFTSGDYWGQGTQVTVSS,low polyreactivity
13,QVQLVESGGRLVQAGGSLRLSCAASGRIFDGNAMGWYRQAPGKERELVAAISWTGGSTYYADSVKGRFTISRDNAKNTVYLQMNSLKPEDTAVYYCAADSGWWLDQWSWYDYWGQGTQVTVSS,low polyreactivity
14,QVQLVESGGRLVQAGGSLRLSCAASGRIFGRYAMGWYRQAPGKERELVAAISSSGGSTYYADSVKGRFTISRDNAKNTVYLQMNSLKPEDTAVYYCAAEIIKVAYRVAYYYWGQGTQVTVSS,high polyreactivity
15,QVQLVESGGRLVQAGGSLRLSCAASGRIFKSYAMGWDRQAPGKERELVAAISRSGGRTYYADSVKGRFTISRDTAKNTVYLQMICLKPEDTAVYFCAGTTIVAPYWGQGTQVTVST,low polyreactivity
16,QVQLVESGGRLVQAGGSLRLSCAASGRIFRGYAMGWYRQEPGKERELVAAISQSGSSTYYADSVKGRFTISRDNAKNTVYLQMNSLKPEDTAVYYSAVIYVKHFGYWGLGTQVTVSS,high polyreactivity
17,QVQLVESGGRLVQAGGSLRLSCAASGRIFSINVMGWYRHAPGKERELVAAISKRGGSTYYADSVKGRFTISRDNAKNTVYLQMNSLKPEDTAVFYCAARRHYTYGNGPSRGGQMDYWGQGTQVTVSS,high polyreactivity
18,QVQLVESGGRLVQAGGSLRLSCAASGRIFTYNAMGWYTQAPGKERELVAGITRRGGSTYYADSVKGRFTISRDNAKNTVYLQMNSLKPEDTAVYYCAATYPNARRYEYWGQGTQVTVSS,high polyreactivity
19,QVQLVESGGRLVQAGGSLRLSCAASGRIFVVNAMGWYRQAPGKERELVAAIDRSGGSTYYADSVKGRFTISRDNAKNTVYLQMNSLKPEDTAVYYCNTGRRYYSYRRDYWGQGTQVTVSS,high polyreactivity
20,QVQLVESGGRLVQAGGSLRLSCAASGRIIAYNAKGWYRQAPGKERELVDAISRSGGSTYYADSVKGRFTISRDNAKNTVYLQMNSLKPEDTAVYYCAASLKVPYATMNYWGQGTQVTVSS,high polyreactivity
21,QVQLVESGGRLVQAGGSLRLSCAASGRTFARNAMGWYRQAPGKERELVAAISWSGGSTYYADSVKGRFTISRDNAKNTVYLQMNSLKPEDTAVYYCAARICYYNYWGQGTQVTVSS,high polyreactivity
